Measured values from the Human Domainome abundance scans (Beltran et al. 2025).
± gives the uncertainty stated by the source.

B1: Homeobox protein cut-like 1, residues 548 to 629; numbered along this chain, P39880 (parent)
chain: GEEMDTAEIARQVKEQLIKHNIGQRIFGHYVLGLSQGSVSEILARPKPWNKLTVRGKEPFHKMKQFLSDEQNILALRSIQGR

Variants of: B1
Assay: abundance fitness (aPCA) (normalised: wild type 0, dead -1); higher = more abundant; growth selection in yeast, the domain comes from the species named
Settings: Homo sapiens

Variant | abundance fitness
GEEMDTAEIARQVKEQLIKHGIGQRIFGHYVLGLSQGSVSEILARPKPWNKLTVRGKEPFHKMKQFLSDEQNILALRSIQGR | 0.025 ± 0.023
GEEMDTAEIARQVKEQLIKVNIGQRIFGHYVLGLSQGSVSEILARPKPWNKLTVRGKEPFHKMKQFLSDEQNILALRSIQGR | -0.6 ± 0.038
GEEMDTAEIARQVKEQLIKGNIGQRIFGHYVLGLSQGSVSEILARPKPWNKLTVRGKEPFHKMKQFLSDEQNILALRSIQGR | -0.584 ± 0.026
GEEMDTAEIARQVKEQLIKHNIGQRIFGHYVLGLPQGSVSEILARPKPWNKLTVRGKEPFHKMKQFLSDEQNILALRSIQGR | 0.062 ± 0.037
GEEMDTAEIARQVKEQLIKHNIGQRIFGHYVLGLSQGSVSEIRARPKPWNKLTVRGKEPFHKMKQFLSDEQNILALRSIQGR | -1 ± 0.048
GEEMDTAEIARQVKEQLIKHNIGQRIFGHYVLGLSQGSVSEILARPKPWNKLTVRGKEEFHKMKQFLSDEQNILALRSIQGR | 0.101 ± 0.03
GEEMDTAEIARQVKEQLIKHNIGQRIFGHYVLGLSQGSVSEILARPKPWNKLTVRGKEDFHKMKQFLSDEQNILALRSIQGR | 0.047 ± 0.051
GEEMDTAEIARQVKEQLIKHNIGQRIFGHYVLGLSQGSVSEILARPKPWNKLTVRGKEPFHKMKQNLSDEQNILALRSIQGR | -0.781 ± 0.13
GEWMDTAEIARQVKEQLIKHNIGQRIFGHYVLGLSQGSVSEILARPKPWNKLTVRGKEPFHKMKQFLSDEQNILALRSIQGR | -0.017 ± 0.031
GEEMDTARIARQVKEQLIKHNIGQRIFGHYVLGLSQGSVSEILARPKPWNKLTVRGKEPFHKMKQFLSDEQNILALRSIQGR | -0.17 ± 0.024
GEEMDTAVIARQVKEQLIKHNIGQRIFGHYVLGLSQGSVSEILARPKPWNKLTVRGKEPFHKMKQFLSDEQNILALRSIQGR | -0.135 ± 0.028
GEEMDTAEIARQVKEQLIKHNIGQRIFGHYVLGLSQGSVSEILARPKPWNKLTVRGKEPFVKMKQFLSDEQNILALRSIQGR | 0.009 ± 0.028
GEEMDTAEIARQVKEQLIKHNIGQRIFGHYVFGLSQGSVSEILARPKPWNKLTVRGKEPFHKMKQFLSDEQNILALRSIQGR | -0.988 ± 0.24
GEEMDTAEIARQVKEQLIKHNIGQRIFGHYVCGLSQGSVSEILARPKPWNKLTVRGKEPFHKMKQFLSDEQNILALRSIQGR | -0.281 ± 0.056
GEEMDTAEIARQVKEQLIKHNIGQRIFGHYVLGFSQGSVSEILARPKPWNKLTVRGKEPFHKMKQFLSDEQNILALRSIQGR | -0.167 ± 0.068
GEEMDTAEIARQVKEQLIKHNIGQRIFGHYVLGWSQGSVSEILARPKPWNKLTVRGKEPFHKMKQFLSDEQNILALRSIQGR | -0.264 ± 0.032
GEEMDTAEIARQVKEQLIKHNIGQRIFGQYVLGLSQGSVSEILARPKPWNKLTVRGKEPFHKMKQFLSDEQNILALRSIQGR | 0.038 ± 0.035
GEEMDTAEIARQVKEQLIKHNIGQRIFGHYVLGLSQGSVSEILARPKPWNKLTVRGKEPFHKMKQFLSDEQNILALRCIQGR | -0.107 ± 0.043
GEEMDTAEIARQVKEQLIKHNIGQTIFGHYVLGLSQGSVSEILARPKPWNKLTVRGKEPFHKMKQFLSDEQNILALRSIQGR | 0.036 ± 0.034
GEEMDTAEIARQVKEQLIKHNIGQFIFGHYVLGLSQGSVSEILARPKPWNKLTVRGKEPFHKMKQFLSDEQNILALRSIQGR | -0.096 ± 0.064
GEEMDTAEIARQVKEQLIKHNIGQRIFGHYVLGLSQGSVSEILARPKPWNKLTVRGKEPFHKMKQFLSDEQNSLALRSIQGR | 0.005 ± 0.036
GEEMDTAEIARQVKEHLIKHNIGQRIFGHYVLGLSQGSVSEILARPKPWNKLTVRGKEPFHKMKQFLSDEQNILALRSIQGR | -0.113 ± 0.3
GEEMDTAEIARQVKEQLIKHNIGQRIFGHYVLGLSQGSVSEILARPKPWNKLTVRGKEPFHKMKQFLFDEQNILALRSIQGR | -0.187 ± 0.06

Variant | abundance fitness
GEEMDTAEIARQVKEQLIKHNIGQRIFGHYVLGLSQGSVSEILARPKPWNKLTVRGKEPFHKMKQFLSDEQNILALRSIIGR | -0.098 ± 0.059
GEEMDTAEIWRQVKEQLIKHNIGQRIFGHYVLGLSQGSVSEILARPKPWNKLTVRGKEPFHKMKQFLSDEQNILALRSIQGR | -0.755 ± 0.063
GEEMDTAEIARQVKEQLIKHNIGQRIFGHYVLGLSQGSVSEILARPWPWNKLTVRGKEPFHKMKQFLSDEQNILALRSIQGR | -0.329 ± 0.033
PEEMDTAEIARQVKEQLIKHNIGQRIFGHYVLGLSQGSVSEILARPKPWNKLTVRGKEPFHKMKQFLSDEQNILALRSIQGR | -0.044 ± 0.083
GEEMDTAEIARQVKEQLIKHNIGARIFGHYVLGLSQGSVSEILARPKPWNKLTVRGKEPFHKMKQFLSDEQNILALRSIQGR | -0.129 ± 0.028
GEEMDTAEIARQVKEQLIKHNIGPRIFGHYVLGLSQGSVSEILARPKPWNKLTVRGKEPFHKMKQFLSDEQNILALRSIQGR | -0.079 ± 0.035
GEEMDTAEIARQVKEQLIKHNIGQRKFGHYVLGLSQGSVSEILARPKPWNKLTVRGKEPFHKMKQFLSDEQNILALRSIQGR | -0.152 ± 0.036
GEEMDTAEIARQVKEQLIKHNIGQRMFGHYVLGLSQGSVSEILARPKPWNKLTVRGKEPFHKMKQFLSDEQNILALRSIQGR | -0.082 ± 0.033
GEEMDTAEIARQVKEQLIKHNIGQRIFGHYVLGLSQGSVSEILARPKPWNKLTVRGKEPFHKMKQFLSDEQNILANRSIQGR | -0.856 ± 0.16
GEEMDTAEIARQVKEQLIKHNIGQRIFGHYVLGLSNGSVSEILARPKPWNKLTVRGKEPFHKMKQFLSDEQNILALRSIQGR | -0.048 ± 0.057
GEEMDTAEIARQVKEQEIKHNIGQRIFGHYVLGLSQGSVSEILARPKPWNKLTVRGKEPFHKMKQFLSDEQNILALRSIQGR | -0.613 ± 0.039
GEEMDTAEIARQVKEQLIKHNIGQRIFGHYVLGLSQGSVSEILARPKPWNKLTNRGKEPFHKMKQFLSDEQNILALRSIQGR | 0.08 ± 0.049
GEEMDTAEIARQVKEQLIKHNIGQRIFGHYVLGLSQGSVSWILARPKPWNKLTVRGKEPFHKMKQFLSDEQNILALRSIQGR | -0.522 ± 0.041
GEEWDTAEIARQVKEQLIKHNIGQRIFGHYVLGLSQGSVSEILARPKPWNKLTVRGKEPFHKMKQFLSDEQNILALRSIQGR | -0.23 ± 0.034
GEEQDTAEIARQVKEQLIKHNIGQRIFGHYVLGLSQGSVSEILARPKPWNKLTVRGKEPFHKMKQFLSDEQNILALRSIQGR | -0.2 ± 0.037
GEEMDSAEIARQVKEQLIKHNIGQRIFGHYVLGLSQGSVSEILARPKPWNKLTVRGKEPFHKMKQFLSDEQNILALRSIQGR | -0.468 ± 0.039
GEEMDAAEIARQVKEQLIKHNIGQRIFGHYVLGLSQGSVSEILARPKPWNKLTVRGKEPFHKMKQFLSDEQNILALRSIQGR | -0.697 ± 0.042
GEEMDFAEIARQVKEQLIKHNIGQRIFGHYVLGLSQGSVSEILARPKPWNKLTVRGKEPFHKMKQFLSDEQNILALRSIQGR | -0.822 ± 0.27
GEEMDTAEIARQVKEQLIKHNIGQRIFGHYVLGLSQGSVSEILARPKPWNKLTVNGKEPFHKMKQFLSDEQNILALRSIQGR | -0.142 ± 0.071
GEEMDTAEIARQVKEQLIKHNIGQRIFGHYVLGLSQGSVSEILARPKPWNKLTVRGKEPFHKMKRFLSDEQNILALRSIQGR | -0.039 ± 0.024
GEEMDTAEIARQVKEQLIKHNIGQRIFGHYVLGLSQGSVSEILARPKPWNKLTVRIKEPFHKMKQFLSDEQNILALRSIQGR | -0.282 ± 0.07
GEEMNTAEIARQVKEQLIKHNIGQRIFGHYVLGLSQGSVSEILARPKPWNKLTVRGKEPFHKMKQFLSDEQNILALRSIQGR | -0.076 ± 0.045
GEEMDTAEIARQVKEQLIKHNIGQRIFGHYVLGLSQGSVSEILARPKPWNKLTVRGKEPFHKMKQFLSDEQNILALQSIQGR | 0.018 ± 0.042

Variant | abundance fitness
GEEMDTAEIARQVKEQLIKHNIGQRIFGHYVLGLSQGSVSEILARPKPWNDLTVRGKEPFHKMKQFLSDEQNILALRSIQGR | 0.054 ± 0.082
GEEMDTAEIARQVKEQLIKHNIGQRIFGHYVLGLSQGSVSEILARPKPWNQLTVRGKEPFHKMKQFLSDEQNILALRSIQGR | 0.122 ± 0.08
GEEMDTAEIAFQVKEQLIKHNIGQRIFGHYVLGLSQGSVSEILARPKPWNKLTVRGKEPFHKMKQFLSDEQNILALRSIQGR | -0.243 ± 0.085
GEEMDTAEIATQVKEQLIKHNIGQRIFGHYVLGLSQGSVSEILARPKPWNKLTVRGKEPFHKMKQFLSDEQNILALRSIQGR | -0.131 ± 0.061
GEEMDTAEIARQVKEQLIKHNIGQRIFGHYVLGLSQGSVSEILARPKPWNKLTVRGKFPFHKMKQFLSDEQNILALRSIQGR | -0.416 ± 0.14
GEEMDTAEIARQVKEQLIKHNIGQRIFGHYVLGLSQGSVSEILARPKPWNKLTVRGKKPFHKMKQFLSDEQNILALRSIQGR | -0.23 ± 0.037
GEEMDTAEIARQVKEQLIKHNIGQRIFGHYVLGLSQGSVSEILARPKPWNKLTVRGKTPFHKMKQFLSDEQNILALRSIQGR | -0.255 ± 0.038
GEEMDTAEIARQVKEQLIKHNICQRIFGHYVLGLSQGSVSEILARPKPWNKLTVRGKEPFHKMKQFLSDEQNILALRSIQGR | -0.054 ± 0.051
GEEMDTAEIARQVKEQLIKHNIAQRIFGHYVLGLSQGSVSEILARPKPWNKLTVRGKEPFHKMKQFLSDEQNILALRSIQGR | -0.004 ± 0.024
GEEMDTAEIARQVKEQLIKHNIYQRIFGHYVLGLSQGSVSEILARPKPWNKLTVRGKEPFHKMKQFLSDEQNILALRSIQGR | -0.108 ± 0.06
GEEMDTAEIARQVKNQLIKHNIGQRIFGHYVLGLSQGSVSEILARPKPWNKLTVRGKEPFHKMKQFLSDEQNILALRSIQGR | -0.328 ± 0.23
GEEMDTAEIARQVKEQLIKHNIGQRIFGHYVLGLSQGSVSEILARPKPWNKLTVRGKEPFHKMKQFLSDEQNIDALRSIQGR | -0.019 ± 0.046
GEEMDTAEIARQVKEQLIKHNIGQRIFGHYVLGLSQGSVSEILARPKPWNKLTVRGKEPFHKMKQFLSDEQNIEALRSIQGR | 0.008 ± 0.034
GEEMDTAEIARQVKEQLIKHNIGQRIGGHYVLGLSQGSVSEILARPKPWNKLTVRGKEPFHKMKQFLSDEQNILALRSIQGR | -0.894 ± 0.041
GEEMDTAEIARQVKEQLIKHNIGQRIFGHYVLGLSQGSVSEILARPKPWNKLTVRGKEPFHKMKQFLSDEQFILALRSIQGR | -0.143 ± 0.05
GEEMDTAEIARQVKEQLIKHNIGQRIFGHYVLGLSQGSVSEILARPKPWNKLTVRGKEPFHKMKQFLSDEQMILALRSIQGR | -0.132 ± 0.041
GEEMDTAEIARQVKEQLIKHNIGQRIFGHYVLGLSQGSVSEILARPKPWNKLTVRGKEPFHKMKQFLSDEQPILALRSIQGR | -0.432 ± 0.05
GEEMDTAEIARQVKEQLIKHNIGQRIFGHYHLGLSQGSVSEILARPKPWNKLTVRGKEPFHKMKQFLSDEQNILALRSIQGR | -0.988 ± 0.24
GEEMDTAEIARQVKEQLIKHNIGQRIFGHYGLGLSQGSVSEILARPKPWNKLTVRGKEPFHKMKQFLSDEQNILALRSIQGR | -0.766 ± 0.036
GEEMDTAEIARQVKEQLIKHNIGQRIFGHYRLGLSQGSVSEILARPKPWNKLTVRGKEPFHKMKQFLSDEQNILALRSIQGR | -0.947 ± 0.046
GEEMDTAEIARQVKEQLIKHNIGQRIFGHYDLGLSQGSVSEILARPKPWNKLTVRGKEPFHKMKQFLSDEQNILALRSIQGR | -0.839 ± 0.082
